# IntAct's records for PubMed 16980972
# Target: asf1a_human ASF1A (UniProt Q9Y294)
# Sequence (Q9Y294 whole entry): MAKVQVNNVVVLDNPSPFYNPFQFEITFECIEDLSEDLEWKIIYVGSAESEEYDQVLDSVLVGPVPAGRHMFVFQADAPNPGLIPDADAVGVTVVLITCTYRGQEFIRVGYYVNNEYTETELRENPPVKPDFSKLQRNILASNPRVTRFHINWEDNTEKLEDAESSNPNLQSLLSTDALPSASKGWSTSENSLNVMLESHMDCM
substance,measurement,value
Chromatin assembly factor 1 subunit B (Homo sapiens) (from UniProt Q13112) R483A;R499A,effect of a mutation on the interaction,disrupting interaction
